Test results reported in patent US20160053025A1 (SAMSUNG ELECTRONICS, published 2016).

T1: recombinant hAng-2 (C-His, R&D Systems) (human, UniProt O15123 19-496)
T1 construct: Bought protein; also called human Ang-2 protein; C-terminal histidine-tagged human Ang2 (R&D Systems); not shown: C-terminal His tag
T1 sequence: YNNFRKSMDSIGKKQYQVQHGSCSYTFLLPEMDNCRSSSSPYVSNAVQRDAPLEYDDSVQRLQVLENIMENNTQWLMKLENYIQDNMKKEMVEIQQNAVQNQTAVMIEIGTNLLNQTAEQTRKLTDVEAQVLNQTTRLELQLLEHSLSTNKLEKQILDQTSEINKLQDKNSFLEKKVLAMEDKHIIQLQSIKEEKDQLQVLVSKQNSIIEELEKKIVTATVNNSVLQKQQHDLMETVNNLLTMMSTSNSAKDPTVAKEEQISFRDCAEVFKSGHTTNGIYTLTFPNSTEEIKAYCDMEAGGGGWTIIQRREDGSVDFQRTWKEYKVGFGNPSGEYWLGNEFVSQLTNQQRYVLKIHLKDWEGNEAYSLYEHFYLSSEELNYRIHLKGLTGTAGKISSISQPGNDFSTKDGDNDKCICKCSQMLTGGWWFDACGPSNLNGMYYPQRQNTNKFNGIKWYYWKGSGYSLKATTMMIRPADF


Molecular target: T1, recombinant hAng-2 (C-His, R&D Systems)
Assay: SPR, BIAcore T100; hAng2 (C-His) captured by anti-His antibody on CM5, antibody as analyte
Method: The binding affinity (KD values) of the antibodies to human Ang2 protein was measured by an SPR method using a BIAcore T100 (GE Healthcare). 25 μg/ml anti-His antibody was immobilized on a CM5 sensor chip (GE healthcare) using a pH 5.0 acetate solution and an amine coupling kit (GE Healthcare). 6 μg/ml of a recombinant hAng2 (C-His, R&D Systems) protein was flowed onto the chip to be captured at 100 to 200 RU levels.

Binder | Kd [nM] | koff [s⁻¹] | kon [M⁻¹ s⁻¹]
h10D6-OPTI-1 (antibody, human IgG1, V domains shown) VH: QVQLQESGPGLVKPSETLSLTCAVSGYSITSDYAWNWIRQPPGKGLEWMGKISYSGKTDYNPSLKSRSTISRDTSKNQFSLKLSSVTAADTAVYYCARGNFEGAMDYWGQGTLVTVSS VL: DIQMTQSPSSLSASVGDRVTITCKASQSVSNDVAWYQQKPGKAPKLLIYYASNRYPGVPSRFSGSGSGTDFTLTISSLQPEDFATYYCQQDYSSPWTFGQGTKLEIK | 0.68 | 0.000321 | 474000
h10D6-OPTI-3 (antibody, human IgG1, V domains shown) VH: EVQLVESGGGLVQPGGSLRLSCAASGYSITSDYAWNWVRQAPGKGLEWMGKISYSGKTDYNPSLKSRSTISRDTSKNTFYLQMNSLRAEDTAVYYCARGNFEGAMDYWGQGTLVTVSS VL: DIQMTQSPSSLSASVGDRVTITCKASQSVSNDVAWYQQKPGKAPKLLIYYASNRYPGVPSRFSGSGSGTDFTLTISSLQPEDFATYYCQQDYSSPWTFGQGTKLEIK | 0.49 | 0.000307 | 624000
h10D6-OPTI-65 (antibody, human IgG1, V domains shown) VH: QVQLQESGPGLVKPSETLSLTCAVSGYSITSDYAWNWIRQPPGKGLEWMGKISYSGKTDYNPSLKSRSTISRDTSKNQFSLKLSSVTAADTAVYYCARGNFEGAMDYWGQGTLVTVSS VL: DIQMTQSPSSLSASVGDRVTITCKASQSVSNDVAWYQQKPGKAPKLLIYYASIPYPGVPSRFSGSGSGTDFTLTISSLQPEDFATYYCQQDYSSPWTFGQGTKLEIK | – | 2.25e-05 | –
h10D6-OPTI-4 (antibody, human IgG1, V domains shown) VH: EVQLVESGGGLVQPGGSLRLSCAASGYSITSDYAWNWVRQAPGKGLEWMGKINYAGNTDYNPSLKSRSTISRDTSKNTFYLQMNSLRAEDTAVYYCARGNFEGAMDYWGQGTLVTVSS VL: DIQMTQSPSSLSASVGDRVTITCKASQSVSNDVAWYQQKPGKAPKLLIYYASNRYPGVPSRFSGSGSGTDFTLTISSLQPEDFATYYCQQDYSSPWTFGQGTKLEIK | 0.33 | 0.000246 | 736000
10D6-HU5 (antibody, V domains shown, Humanized antibody; also called humanized antibody 10D6-HU5) VH: QVQLQESGPGLVKPSETLSLTCAVSGYSITSDYAWNWIRQPPGKGLEWIGYINYSGNTDYNPSLKSRVTISVDTSKNQFSLKLSSVTAADTAVYYCARGNFEGAMDYWGQGTLVTVSS VL: DIQMTQSPSSLSASVGDRVTITCKASQSVSNDVAWYQQKPGKAPKLLIYYASNRYPGVPSRFSGSGSGTDFTLTISSLQPEDFATYYCQQDYSSPWTFGQGTKLEIK | 64 | 0.00312 | 48600
10D6-HU3 (antibody, V domains shown, Humanized antibody; also called humanized antibody 10D6-HU3) VH: EVQLVESGGGLVQPGGSLRLSCAASGYSITSDYAWNWVRQAPGKGLEWMGYINYSGNTDYNPSLKSRSTISRDTSKNTFYLQMNSLRAEDTAVYYCARGNFEGAMDYWGQGTLVTVSS VL: DIQMTQSPSSLSASVGDRVTITCKASQSVSNDVAWYQQKPGKAPKLLIYYASNRYPGVPSRFSGSGSGTDFTLTISSLQPEDFATYYCQQDYSSPWTFGQGTKLEIK | 43 | 0.00194 | 45000
h10D6-OPTI-63 (antibody, human IgG1, V domains shown) VH: QVQLQESGPGLVKPSETLSLTCAVSGYSITSDYAWNWIRQPPGKGLEWMGKISYSGKTDYNPSLKSRSTISRDTSKNQFSLKLSSVTAADTAVYYCARGNFEGAMDYWGQGTLVTVSS VL: DIQMTQSPSSLSASVGDRVTITCKASQFVSTDVHWYQQKPGKAPKLLIYYASNRYPGVPSRFSGSGSGTDFTLTISSLQPEDFATYYCQQDYSSPWTFGQGTKLEIK | 0.0277 | 7.42e-05 | 2.68e+06
h10D6-OPTI-16 (antibody, human IgG1, V domains shown) VH: EVQLVESGGGLVQPGGSLRLSCAASGYSITSDYAWNWVRQAPGKGLEWMGKISYSGKTDYNPSLKSRSTISRDTSKNTFYLQMNSLRAEDTAVYYCARGNFEGAMDYWGQGTLVTVSS VL: DIQMTQSPSSLSASVGDRVTITCKASQSVSNDVHWYQQKPGKAPKLLIYYASNRYPGVPSRFSGSGSGTDFTLTISSLQPEDFATYYCQQDYSSPWTFGQGTKLEIK | 0.92 | 0.000443 | 479000
h10D6-OPTI-2 (antibody, human IgG1, V domains shown) VH: QVQLQESGPGLVKPSETLSLTCAVSGYSITSDYAWNWIRQPPGKGLEWMGKINYAGNTDYNPSLKSRSTISRDTSKNQFSLKLSSVTAADTAVYYCARGNFEGAMDYWGQGTLVTVSS VL: DIQMTQSPSSLSASVGDRVTITCKASQSVSNDVAWYQQKPGKAPKLLIYYASNRYPGVPSRFSGSGSGTDFTLTISSLQPEDFATYYCQQDYSSPWTFGQGTKLEIK | 0.34 | 0.000149 | 424000

The remaining binders from weak to strong by Kd, led by results:

Kd [nM] | koff [s⁻¹] | kon [M⁻¹ s⁻¹] | Binder
84 | 0.0026 | 30800 | 10D6-HU1 (antibody, V domains shown, Humanized antibody; also called humanized antibody 10D6-HU1) VH: QVQLQESGPGLVKPSETLSLTCAVSGYSISSDYAWNWIRQPPGKGLEWIGYINYSGNTDYNPSLKSRVTISVDTSKNQFSLKLSSVTAADTAVYYCARGNFEGAMDYWGQGTLVTVSS VL: DIQMTQSPSSLSASVGDRVTITCKASQSVSNDVAWYQQKPGKAPKLLIYYASNRYPGVPSRFSGSGSGTDFTLTISSLQPEDFATYYCQQDYSSPWTFGQGTKLEIK
47 | 0.00346 | 73000 | 10D6-HU2 (antibody, V domains shown, Humanized antibody; also called humanized antibody 10D6-HU2) VH: QVQLQESGPGLVKPSETLSLTCAVSGYSITSDYAWNWIRQPPGKGLEWMGYINYSGNTDYNPSLKSRSTISRDTSKNQFSLKLSSVTAADTAVYYCARGNFEGAMDYWGQGTLVTVSS VL: DIQMTQSPSSLSASVGDRVTITCKASQSVSNDVAWYQQKPGKAPKLLIYYASNRYPGVPSRFSGSGSGTDFTLTISSLQPEDFATYYCQQDYSSPWTFGQGTKLEIK
0.85 | 0.000286 | 336000 | h10D6-OPTI-42 (antibody, human IgG1, V domains shown) VH: QVQLQESGPGLVKPSETLSLTCAVSGYSITSDYAWNWIRQPPGKGLEWIGYINYSGNTDYNPSLKSRVTISVDTSKNQFSLKLSSVTAADTAVYYCARGNFEGAMDYWGQGTLVTVSS VL: DIQMTQSPSSLSASVGDRVTITCKASQSVSNDVHWYQQKPGKAPKLLIYYASNRYPGVPSRFSGSGSGTDFTLTISSLQPEDFATYYCQHDYSSPFTFGQGTKLEIK
0.76 | 0.00035 | 460000 | h10D6-OPTI-17 (antibody, human IgG1, V domains shown) VH: EVQLVESGGGLVQPGGSLRLSCAASGYSITSDYAWNWVRQAPGKGLEWMGKINYAGNTDYNPSLKSRSTISRDTSKNTFYLQMNSLRAEDTAVYYCARGNFEGAMDYWGQGTLVTVSS VL: DIQMTQSPSSLSASVGDRVTITCKASQSVSNDVHWYQQKPGKAPKLLIYYASNRYPGVPSRFSGSGSGTDFTLTISSLQPEDFATYYCQQDYSSPWTFGQGTKLEIK
0.437 | 0.000116 | 265000 | h10D6-OPTI-70 (antibody, human IgG1, V domains shown) VH: EVQLVESGGGLVQPGGSLRLSCAASGYSITSDYAWNWVRQAPGKGLEWMGKISYSGKTDYNPSLKSRSTISRDTSKNTFYLQMNSLRAEDTAVYYCARGNFEGAMDYWGQGTLVTVSS VL: DIQMTQSPSSLSASVGDRVTITCKASQSVSNDVAWYQQKPGKAPKLLIYYASIPYPGVPSRFSGSGSGTDFTLTISSLQPEDFATYYCQQDYSSPWTFGQGTKLEIK
0.38 | 0.000576 | 1.53e+06 | h10D6-OPTI-43 (antibody, human IgG1, V domains shown) VH: QVQLQESGPGLVKPSETLSLTCAVSGYSITSDYAWNWIRQPPGKGLEWMGKISYSGKTDYNPSLKSRSTISRDTSKNQFSLKLSSVTAADTAVYYCARGNFEGAMDYWGQGTLVTVSS VL: DIQMTQSPSSLSASVGDRVTITCKASQSVSNDVHWYQQKPGKAPKLLIYYASNRYPGVPSRFSGSGSGTDFTLTISSLQPEDFATYYCQQDYSSPWTFGQGTKLEIK
0.317 | 0.00017 | 536000 | h10D6-OPTI-68 (antibody, human IgG1, V domains shown) VH: EVQLVESGGGLVQPGGSLRLSCAASGYSITSDYAWNWVRQAPGKGLEWMGKISYSGKTDYNPSLKSRSTISRDTSKNTFYLQMNSLRAEDTAVYYCARGNFEGAMDYWGQGTLVTVSS VL: DIQMTQSPSSLSASVGDRVTITCKASQFVSTDVHWYQQKPGKAPKLLIYYASNRYPGVPSRFSGSGSGTDFTLTISSLQPEDFATYYCQQDYSSPWTFGQGTKLEIK
0.14 | 8.49e-05 | 621000 | h10D6-OPTI-55 (antibody, human IgG1, V domains shown) VH: QVQLQESGPGLVKPSETLSLTCAVSGYSITSDYAWNWIRQPPGKGLEWMGKINYAGNTDYNPSLKSRSTISRDTSKNQFSLKLSSVTAADTAVYYCARGNFEGAMDYWGQGTLVTVSS VL: DIQMTQSPSSLSASVGDRVTITCKASQSVSNDVHWYQQKPGKAPKLLIYYASNRYPGVPSRFSGSGSGTDFTLTISSLQPEDFATYYCQQDYSSPWTFGQGTKLEIK
0.000129 | 2.68e-07 | 2.08e+06 | h10D6-OPTI-67 (antibody, human IgG1, V domains shown) VH: QVQLQESGPGLVKPSETLSLTCAVSGYSITSDYAWNWIRQPPGKGLEWMGKISYSGKTDYNPSLKSRSTISRDTSKNQFSLKLSSVTAADTAVYYCARGNFEGAMDYWGQGTLVTVSS VL: DIQMTQSPSSLSASVGDRVTITCKASQSVSNDVHWYQQKPGKAPKLLIYYASIPYPGVPSRFSGSGSGTDFTLTISSLQPEDFATYYCQQDYSSPWTFGQGTKLEIK
